Patent US20250011363A1, “OPTIMIZED SHORTENED PEPTIDE THAT BINDS TO ACETYLCHOLINE RECEPTOR, AND USE THEREOF” (SKINMED CO., LTD., priority 2021, published 2025)

Target: acetylcholine receptor (Homo sapiens, UniProt P02708)
Assay: SPR binding affinity (RU) of optimized 5mer/6mer/7mer peptides, Examples 6-7
Conditions: 6mer-1 Top sequence; SPR; peptides tested at 10 μM
Description: Based on the frequencies of occurrence of the top 7 amino acids from Table 7 in Example 5, 600 peptides comprising these amino acids (top combinations) and those comprising the 13 less frequently occurring amino acids (bottom combinations) were synthesized for each series of 5mer, 6mer-1, and 6mer-2. The binding affinity of each sequence for the acetylcholine receptor was measured using Surface Plasmon Resonance (SPR) analysis method. The peptides were tested at a concentration of 10 μM. Additionally, the average binding affinities of the top and bottom combinations in each series are depicted in FIGS. 5-7.
Representative peptides identified in Example 6, two in each library, including 5mers (73, 311) and 6mers-1 (43, 210) and 6mers-2 (136, 233), were compared with the pre-optimized 6mer, 5mer-ND, and Synake.

Chain of acetylcholine receptor (P02708 21-457): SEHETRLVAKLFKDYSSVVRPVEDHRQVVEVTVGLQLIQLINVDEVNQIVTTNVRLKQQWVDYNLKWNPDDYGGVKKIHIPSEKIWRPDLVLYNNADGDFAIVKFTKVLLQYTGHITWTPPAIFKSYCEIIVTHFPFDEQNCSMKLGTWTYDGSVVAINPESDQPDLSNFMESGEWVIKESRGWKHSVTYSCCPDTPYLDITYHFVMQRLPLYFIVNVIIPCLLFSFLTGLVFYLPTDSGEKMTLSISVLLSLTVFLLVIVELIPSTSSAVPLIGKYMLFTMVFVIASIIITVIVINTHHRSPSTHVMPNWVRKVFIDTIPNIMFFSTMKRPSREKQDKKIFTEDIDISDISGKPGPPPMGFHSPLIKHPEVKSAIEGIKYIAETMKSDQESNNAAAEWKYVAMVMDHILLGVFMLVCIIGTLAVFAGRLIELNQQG

Row | Substance | Binding affinity
1 | 6mer-1-356 (KRGYSK) | 153 Ru
2 | 6mer-1-365 (KKRICK) | 142 Ru
3 | 6mer-1-387 (KKGRLR) | 148 Ru
4 | 6mer-1-271 (RRQVSK) | 122 Ru
5 | 6mer-1-391 (RRQRCK) | 131 Ru
6 | 6mer-1-260 (RKQRTK) | 141 Ru
7 | 6mer-1-345 (KKLLCR) | 147 Ru
8 | 6mer-1-382 (KRQYTR) | 139 Ru
9 | 6mer-1-362 (KRVVYK) | 133 Ru
10 | 6mer-1-292 (RKWQTK) | 122 Ru
11 | 6mer-1-217 (KRVLQR) | 135 Ru
12 | 6mer-1-245 (RRGFRR) | 142 Ru
13 | 6mer-1-294 (KKLYRR) | 123 Ru
14 | 6mer-1-363 (KRQIRR) | 121 Ru
15 | 6mer-1-230 (RKGYCK) | 128 Ru

Same assay, conditions: 6mer-2 Top sequence; SPR; peptides tested at 10 μM

Row | Substance | Binding affinity
16 | 6mer-2-12 (RQFQRK) | 147 Ru
17 | 6mer-2-9 (KLICRK) | 139 Ru
18 | 6mer-2-118 (KWFSRR) | 135 Ru
19 | 6mer-2-168 (RVFLKR) | 135 Ru
20 | 6mer-2-5 (RWVSKR) | 124 Ru
21 | 6mer-2-85 (KSQYKR) | 137 Ru
22 | 6mer-2-113 (KRYSRK) | 145 Ru
23 | 6mer-2-70 (KRLLRK) | 126 Ru
24 | 6mer-2-143 (RRVCRR) | 128 Ru
25 | 6mer-2-37 (KLLYRK) | 148 Ru

Same assay, conditions: SPR, Resonance Units; 5mer Bottom sequence (bottom combinations); peptides tested at 10 μM

Row | Substance | Binding affinity
26 | 5mer-917 (KCAPR) | 11 Ru
27 | 5mer-788 (KYHGK) | 16 Ru
28 | 5mer-646 (KDTKR) | 16 Ru
29 | 5mer-1067 (KHENK) | 23 Ru
30 | 5mer-602 (KMSVR) | 12 Ru
31 | 5mer-668 (RPHAK) | 27 Ru
32 | 5mer-1101 (KYKNR) | 11 Ru
33 | 5mer-759 (KHKMR) | 17 Ru
34 | 5mer-942 (RPSDR) | 11 Ru
35 | 5mer-762 (KMPER) | 21 Ru
36 | 5mer-771 (RKWVK) | 24 Ru
37 | 5mer-731 (KADHK) | 18 Ru

Same assay, conditions: SPR, Resonance Units; peptides tested at 10 μM; 6mer-1 Bottom sequence

Row | Substance | Binding affinity
38 | 6mer-1-1129 (RKDHAR) | 39 Ru
39 | 6mer-1-1006 (KKDKIK) | 25 Ru
40 | 6mer-1-1031 (RKDTHK) | 38 Ru
41 | 6mer-1-1132 (RRKAER) | 31 Ru
42 | 6mer-1-1188 (RRMNER) | 41 Ru
43 | 6mer-1-1016 (KRHTHR) | 21 Ru
44 | 6mer-1-1004 (RKHSHR) | 41 Ru
45 | 6mer-1-1014 (KKNAWR) | 25 Ru

Same assay, conditions: SPR, Resonance Units; peptides tested at 10 μM; 6mer-1 Bottom sequence (Table 11)

Row | Substance | Binding affinity
46 | 6mer-1-659 (KKPSKR) | 29 Ru
47 | 6mer-1-776 (KKTSIK) | 13 Ru
48 | 6mer-1-640 (RRNCWR) | 25 Ru
49 | 6mer-1-767 (KRTPDK) | 18 Ru
50 | 6mer-1-740 (RKDNKR) | 26 Ru
51 | 6mer-1-787 (KKESIK) | 16 Ru
52 | 6mer-1-636 (RKYKDR) | 27 Ru
53 | 6mer-1-795 (KKCHMR) | 12 Ru

Same assay, conditions: SPR, Resonance Units; peptides tested at 10 μM; 6mer-2 Bottom sequence

Row | Substance | Binding affinity
54 | 6mer-2-682 (RNMERR) | 33 Ru
55 | 6mer-2-834 (RFWWKR) | 28 Ru
56 | 6mer-2-745 (KNTERR) | 17 Ru
57 | 6mer-2-718 (KYTFKR) | 12 Ru
58 | 6mer-2-888 (RIAKRK) | 17 Ru
59 | 6mer-2-694 (KDSIRK) | 22 Ru
60 | 6mer-2-993 (RHDVKK) | 29 Ru
61 | 6mer-2-973 (KCPIKK) | 41 Ru
62 | 6mer-2-979 (KKAFKK) | 22 Ru
63 | 6mer-2-962 (KKSNRK) | 30 Ru
64 | 6mer-2-786 (RMEMRK) | 30 Ru
65 | 6mer-2-773 (KPDARR) | 11 Ru
66 | 6mer-2-751 (RPHWKR) | 12 Ru
67 | 6mer-2-818 (KTPERK) | 13 Ru
68 | 6mer-2-701 (KTWAKR) | 23 Ru
69 | 6mer-2-831 (RMTWRK) | 29 Ru
70 | 6mer-2-725 (KAHMKK) | 25 Ru

Same assay, conditions: SPR, Resonance Units; peptides tested at 10 μM; 6mer-2 Top sequence

Row | Substance | Binding affinity
71 | 6mer-2-575 (RGYSRK) | 139 Ru
72 | 6mer-2-582 (RWQTRK) | 148 Ru
73 | 6mer-2-426 (KGQRRK) | 141 Ru

Same assay, conditions: SPR, Resonance Units; peptides tested at 10 μM; 6mer-2 Top sequence (Table 12)

Row | Substance | Binding affinity
74 | 6mer-2-270 (KSRLRR) | 148 Ru
75 | 6mer-2-345 (KSRQKK) | 148 Ru
76 | 6mer-2-244 (RRFSKR) | 139 Ru
77 | 6mer-2-263 (RRICKR) | 145 Ru
78 | 6mer-2-264 (KSQLKR) | 127 Ru
79 | 6mer-2-321 (KLVSRK) | 139 Ru
80 | 6mer-2-278 (RQIQKK) | 135 Ru

Same assay, conditions: SPR, peptides at 10 μM; 6mer-2 Bottom sequence

Row | Substance | Binding affinity
81 | 6mer-2-1124 (RKTWRK) | 39 Ru
82 | 6mer-2-1092 (RAKFRR) | 21 Ru
83 | 6mer-2-1040 (KYAWRK) | 36 Ru
84 | 6mer-2-1010 (RANHKK) | 36 Ru
85 | 6mer-2-1147 (KFMKKK) | 35 Ru
86 | 6mer-2-1167 (RCAPKR) | 27 Ru
87 | 6mer-2-1062 (KYNIRK) | 35 Ru
88 | 6mer-2-1022 (KCNPRR) | 22 Ru
89 | 6mer-2-1064 (RCMKRR) | 39 Ru
90 | 6mer-2-1131 (RTNAKR) | 26 Ru

Same assay, conditions: SPR, peptides tested at 10 μM; 5mer Top sequence

Row | Substance | Binding affinity
91 | 5mer-319 (RVQTR) | 74 Ru
92 | 5mer-362 (KQRLK) | 62 Ru
93 | 5mer-389 (KWRRR) | 57 Ru
94 | 5mer-26 (RQQQR) | 65 Ru
95 | 5mer-401 (RGVLR) | 52 Ru
96 | 5mer-154 (RSITR) | 54 Ru
97 | 5mer-85 (KGVLK) | 74 Ru
98 | 5mer-159 (RGQRR) | 73 Ru
99 | 5mer-11 (KQRLR) | 84 Ru
100 | 5mer-65 (RQIRR) | 67 Ru
101 | 5mer-162 (RGYQR) | 51 Ru
102 | 5mer-177 (RWVRK) | 77 Ru
103 | 5mer-148 (RSQTK) | 50 Ru
104 | 5mer-368 (KRIRR) | 50 Ru
105 | 5mer-511 (KSLSR) | 56 Ru

Same assay, conditions: SPR, peptides tested at 10 μM; 5mer Top sequence (top combinations)

Row | Substance | Binding affinity
106 | 5mer-237 (RGLRK) | 77 Ru
107 | 5mer-280 (KWILK) | 53 Ru
108 | 5mer-245 (RQRSK) | 62 Ru
109 | 5mer-283 (KWVYK) | 51 Ru
110 | 5mer-214 (KQQCK) | 79 Ru
111 | 5mer-289 (RRQYR) | 87 Ru

Same assay, conditions: SPR, peptides tested at 10 μM; 6mer-1 Bottom sequence (Table 11)

Row | Substance | Binding affinity
112 | 6mer-1-911 (KRCAAR) | 28 Ru
113 | 6mer-1-942 (RRMMVR) | 37 Ru
114 | 6mer-1-887 (KRINHR) | 30 Ru
115 | 6mer-1-988 (KRYPDR) | 24 Ru
116 | 6mer-1-936 (RKETDR) | 36 Ru
117 | 6mer-1-956 (KRKSNK) | 34 Ru

Same assay, conditions: SPR, peptides tested at 10 μM; 6mer-1 Top sequence

Row | Substance | Binding affinity
118 | 6mer-1-545 (RRSYRK) | 127 Ru
119 | 6mer-1-585 (RKSRQK) | 144 Ru
120 | 6mer-1-474 (KRLFSK) | 121 Ru
121 | 6mer-1-411 (RRQRSR) | 121 Ru
122 | 6mer-1-462 (RKQILK) | 126 Ru
123 | 6mer-1-424 (RRRIYR) | 135 Ru
124 | 6mer-1-433 (RKQQYR) | 154 Ru
125 | 6mer-1-464 (RRQRLK) | 131 Ru
126 | 6mer-1-561 (RKVYLK) | 131 Ru

Same assay, conditions: SPR, peptides tested at 10 μM; 6mer-1 Top sequence (top combinations)

Row | Substance | Binding affinity
127 | 6mer-1-95 (KKWQTK) | 142 Ru
128 | 6mer-1-87 (KKQVYK) | 139 Ru
129 | 6mer-1-201 (RRRIQR) | 151 Ru
130 | 6mer-1-190 (RKLYYR) | 153 Ru
131 | 6mer-1-106 (KRGQLK) | 149 Ru
132 | 6mer-1-84 (RRGQTK) | 142 Ru
133 | 6mer-1-112 (KKWVCR) | 148 Ru
134 | 6mer-1-104 (KRGFSK) | 121 Ru

Same assay, conditions: SPR; XRRQRR-6mer and RRQRRX-6mer

Row | Substance | Binding affinity, relative value to the RRQRR sequence
135 | 3618 (HRRQRR) [compound 3618] | 164
136 | 3610 (FRRQRR) [compound 3610] | 143

Same assay, conditions: SPR; peptides tested at 10 μM; 5mer Bottom sequence

Row | Substance | Binding affinity
137 | 5mer-821 (RESDR) | 12 Ru
138 | 5mer-1148 (RDWFR) | 24 Ru
139 | 5mer-1179 (RMNVR) | 18 Ru
140 | 5mer-1122 (RNTDR) | 14 Ru
141 | 5mer-879 (KDCMK) | 13 Ru
142 | 5mer-1164 (RFPWR) | 33 Ru
143 | 5mer-1177 (KIPVR) | 20 Ru
144 | 5mer-873 (RYNFR) | 32 Ru
145 | 5mer-1163 (KKSKR) | 12 Ru
